Assay results from patent US20260209385A1 (ANALYTICAL BIOSCIENCES SHANGHAI, published 2026).

What was measured:
[1] = target: T1, hCCR8 antigen on hCCR8-transfected 293T cells (human, UniProt P51685 1-355); assay: flow cytometry on hCCR8-transfected 293T cells, FITC anti-human IgG Fc, median fluorescence, 4-parameter fit
T1 construct: whole, on cells; also called human CCR8
Procedure: (§1) Serially diluted antibodies or bispecifics were then added, with a maximum final concentration of 1000 nM and 3-fold dilution using PBS buffer. After incubating on ice for 30 mins, the plates were washed two times with FACS buffer (PBS buffer with 0.5 mg/ml BSA, 0.02% tween) and incubated with FITC anti-human IgG antibody (Goat Anti Human (IgG Fc) secondary antibody FITC, Abcam #ab97224, 1:1000) on ice for 30 mins, followed by two times wash with FACS buffer. […] Data were analyzed with GraphPad Prism. Median fluorescent intensity was plotted versus antibody concentration and EC50 was calculated by fitting the curve with the function of log (agonist) vs. response—Variable slope (four parameters).

[2] = target: T2, hCD3 antigen on Jurkat clone E6-1 cells (human); assay: flow cytometry on Jurkat cells, FITC anti-human IgG Fc, median fluorescence, 4-parameter fit
T2 construct: whole, on cells; also called human CD3; hCD3 (Jurkat cell)
T2 sequence (P07766 23-207, chain 1 of 4): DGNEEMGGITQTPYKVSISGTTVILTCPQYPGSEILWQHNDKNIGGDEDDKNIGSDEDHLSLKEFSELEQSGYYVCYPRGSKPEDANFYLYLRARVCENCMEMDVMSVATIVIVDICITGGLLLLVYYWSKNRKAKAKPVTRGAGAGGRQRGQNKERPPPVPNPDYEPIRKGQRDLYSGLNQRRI
T2 sequence (P09693 23-182, chain 2 of 4, further chain): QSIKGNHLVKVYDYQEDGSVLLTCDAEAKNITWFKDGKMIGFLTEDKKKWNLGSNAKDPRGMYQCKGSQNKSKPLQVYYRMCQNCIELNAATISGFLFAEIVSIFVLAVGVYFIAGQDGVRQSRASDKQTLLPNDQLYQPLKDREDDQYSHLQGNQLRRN
T2 sequence (P04234 22-171, chain 3 of 4, further chain): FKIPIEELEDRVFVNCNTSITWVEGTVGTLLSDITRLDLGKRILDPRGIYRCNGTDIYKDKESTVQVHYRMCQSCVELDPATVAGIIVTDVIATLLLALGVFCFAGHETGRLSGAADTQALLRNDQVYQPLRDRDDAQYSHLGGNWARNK
T2 sequence (P20963 22-164, chain 4 of 4, further chain): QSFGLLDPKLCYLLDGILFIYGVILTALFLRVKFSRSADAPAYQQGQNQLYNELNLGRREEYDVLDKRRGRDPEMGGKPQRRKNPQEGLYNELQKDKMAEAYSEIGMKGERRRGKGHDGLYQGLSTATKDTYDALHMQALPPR
Procedure: as §1

T1 sequence (P51685 whole entry): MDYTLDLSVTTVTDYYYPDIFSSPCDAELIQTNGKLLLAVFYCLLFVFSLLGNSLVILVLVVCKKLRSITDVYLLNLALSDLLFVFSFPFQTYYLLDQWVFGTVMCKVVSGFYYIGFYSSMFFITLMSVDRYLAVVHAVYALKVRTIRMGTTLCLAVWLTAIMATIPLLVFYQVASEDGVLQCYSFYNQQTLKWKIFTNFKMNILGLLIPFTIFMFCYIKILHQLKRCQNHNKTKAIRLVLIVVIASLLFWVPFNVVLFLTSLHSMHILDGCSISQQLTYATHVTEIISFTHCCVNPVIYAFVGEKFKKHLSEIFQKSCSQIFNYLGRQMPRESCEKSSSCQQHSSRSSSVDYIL

B1: ABC138 (anti-hCCR8 parental antibody) (antibody, human IgG1, kappa, V domains shown)
VH: EVQLVESGGGLVQPGGSLRLSCAASGFPFNTFAMNWVRQAPGKGLEWLARIRSKSNNYATYYADSVKDRFTISRDNAKRSLYLQMNSLRAEDTAVYYCVRGKENNYGYAMDYWGQGTTVTVSS
VL: DIVMTQSPLSLPVTPGEPASISCRSSKSLLHSNANTYLYWFLQKPGQSPQLLIYRMSNLASGVPDRFSGSGSGTDFTLKISRVEAEDVGVYYCMQHVEYPFTFGGGTKLEIKR
[1]
  EC50: 0.34 nM

B2: ABC752 (ABC752_hCCR8/hCD3_673, anti-hCCR8 x anti-hCD3 BsAb in ABC673 format) (bispecific antibody, human IgG1, kappa, N297A)
heavy 1: EVQLVESGGGLVQPGGSLRLSCAASGFPFNTFAMNWVRQAPGKGLEWLARIRSKSNNYATYYADSVKDRFTISRDNAKRSLYLQMNSLRAEDTAVYYCVRGKENNYGYAMDYWGQGTTVTVSSASTKGQVKPEAWLSHCPSPGPGHLQLVCHVSGFYPKPVWVMWMRGEQEQQGTQRSEILPSADGTWYLRATLEVAAGEAADLSCRVKHSSLEGQDIVLYWEGSDKTHTCPPCPAPELLGGPSVFLFPPKPKDTLMISRTPEVTCVVVDVSHEDPEVKFNWYVDGVEVHNAKTKPREEQYASTYRVVSVLTVLHQDWLNGKEYKCKVSNKALPAPIEKTISKAKGQPREPQVCTLPPSREEMTKNQVSLSCAVKGFYPSDIAVEWESNGQPENNYKTTPPVLDSDGSFFLVSKLTVDKSRWQQGNVFSCSVMHEALHNHYTQKSLSLSPGK
light 1: not shown
heavy 2: not shown
light 2: not shown
[1]
  EC50: 2.9 nM
[2]
  EC50: 2.57 nM

B3: ABC753 (ABC753_hCCR8/hCD3_675, anti-hCCR8 x anti-hCD3 BsAb in ABC675 format) (bispecific antibody, human IgG1, kappa, N297A)
heavy 1: EVQLVESGGGLVQPGGSLRLSCAASGFPFNTFAMNWVRQAPGKGLEWLARIRSKSNNYATYYADSVKDRFTISRDNAKRSLYLQMNSLRAEDTAVYYCVRGKENNYGYAMDYWGQGTTVTVSSASTKGQVKPEAWLSSCPSPGPGRLQLVCHVSGFYPKPVWVMWMRGEQEQQGTQLSEILPNANWTWYLRATLDVADGEAAGLSCRVKHSSLEGQDIILYWRGSGDKTHTCPPCPAPELLGGPSVFLFPPKPKDTLMISRTPEVTCVVVDVSHEDPEVKFNWYVDGVEVHNAKTKPREEQYASTYRVVSVLTVLHQDWLNGKEYKCKVSNKALPAPIEKTISKAKGQPREPQVCTLPPSREEMTKNQVSLSCAVKGFYPSDIAVEWESNGQPENNYKTTPPVLDSDGSFFLVSKLTVDKSRWQQGNVFSCSVMHEALHNHYTQKSLSLSPGK
light 1: not shown
heavy 2: not shown
light 2: not shown
[1]
  EC50: 2.14 nM
[2]
  EC50: 2.09 nM
